The values below come from patent US20030068675, “Position dependent recognition of GNN nucleotide triplets by zinc fingers” (published 2003).

What is called Kd is the constant that tells how readily two partners part at equilibrium. Higher therefore signals lower affinity.

Holding throughout (experiment): EMSA
Holding throughout (conditions): tags: MBP fusion

The target in series [1] is ZFP SBS#361 (synthetic). Here is the method:
(§1) Affinity is measured by titrating purified protein against a fixed amount of labeled double-stranded oligonucleotide target. The target typically comprises the natural binding site sequence flanked by the 3 bp found in the natural sequence and additional, constant flanking sequences. The natural binding site is typically 9 bp for a three-finger protein and 2×9 bp +intervening bases for a six finger ZFP. […] For the assay the target is added at a concentration of 1 nM or lower (the actual concentration is kept at least 10-fold lower than the expected dissociation constant), purified ZFPs are added at various concentrations, and the reaction is allowed to equilibrate for at least 45 min. In addition the reaction mixture also contains 10 mM Tris (pH 7.5), 100 mM KCl, 1 mM MgCl2, 0.1 mM ZnCl2, 5 mM DTT, 10% glycerol, 0.02% BSA. (NB: in earlier assays poly d(IC) was also added at […].) The equilibrated reactions are loaded onto a 10% polyacrylamide gel, which has been pre-run for 45 min in Tris/glycine buffer, then bound and unbound labeled target is resolved by electrophoresis at 150V.

The target in series [2] is ZFP SBS#363 (synthetic). As for the experimental part:
as §1

The target in series [3] is T1, ZFP SBS#355 (synthetic).
T1 chain: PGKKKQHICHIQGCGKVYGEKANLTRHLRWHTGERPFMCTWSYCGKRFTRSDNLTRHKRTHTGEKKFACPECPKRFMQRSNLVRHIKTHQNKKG
As for the experimental part: as §1

Series [4] deals with ZFP SBS#354 (synthetic). As for the experimental part:
as §1

Series [5] concerns the target ZFP SBS#365 (synthetic). Here is the method:
as §1

In series [6] the target is ZFP SBS#323 (synthetic). Here is the method:
as §1

Series [7] concerns the target ZFP SBS#324 (synthetic). Here is the method:
as §1

In series [8] the target is ZFP SBS#321 (synthetic). Here is the method: as §1
ZFP SBS#321 (synthetic), sequence (chain, as listed by the source): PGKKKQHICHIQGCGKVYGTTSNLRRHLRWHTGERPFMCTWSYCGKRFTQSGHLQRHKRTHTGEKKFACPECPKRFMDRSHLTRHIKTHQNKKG
Series [9] addresses ZFP SBS#302 (synthetic). As for the experimental part:
as §1

Series [10] addresses ZFP SBS#299 (synthetic). Here is the method:
as §1

The target in series [11] is T2, ZFP SBS#298 (synthetic).
T2 chain: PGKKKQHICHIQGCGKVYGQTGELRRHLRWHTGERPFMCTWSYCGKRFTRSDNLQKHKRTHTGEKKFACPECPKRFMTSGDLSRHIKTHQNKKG
Here is the method: as §1

Series [12] has as its target ZFP SBS#303 (synthetic). Here is the method: as §1
Series [13] concerns the target T3, ZFP SBS#300 (synthetic, UniProt P08047).
T3 chain: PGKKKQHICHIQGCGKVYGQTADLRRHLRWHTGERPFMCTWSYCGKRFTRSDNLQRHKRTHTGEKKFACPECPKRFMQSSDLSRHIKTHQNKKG
Here is the method: as §1

Series [14] concerns the target ZFP SBS#305 (synthetic). As for the experimental part:
as §1

The target in series [15] is T4, ZFP SBS#304 (synthetic).
T4 chain: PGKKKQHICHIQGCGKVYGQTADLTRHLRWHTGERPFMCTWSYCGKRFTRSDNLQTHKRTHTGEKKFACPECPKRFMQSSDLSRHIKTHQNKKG
As for the experimental part:
as §1

In series [16] the target is T5, ZFP SBS#306 (synthetic).
T5 chain: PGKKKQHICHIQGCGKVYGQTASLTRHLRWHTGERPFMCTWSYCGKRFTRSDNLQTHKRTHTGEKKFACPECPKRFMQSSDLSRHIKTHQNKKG
As for the experimental part:
as §1

Series [17] addresses T6, ZFP SBS#301 (synthetic).
T6 chain: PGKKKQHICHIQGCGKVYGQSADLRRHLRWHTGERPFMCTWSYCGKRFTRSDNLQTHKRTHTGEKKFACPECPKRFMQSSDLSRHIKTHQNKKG
As for the experimental part:
as §1

Series [18] has as its target T7, ZFP SBS#293 (synthetic).
T7 chain: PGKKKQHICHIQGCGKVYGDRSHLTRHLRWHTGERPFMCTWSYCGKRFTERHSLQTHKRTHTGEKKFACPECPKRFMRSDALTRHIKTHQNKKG
As for the experimental part: as §1

Series [19] addresses T8, ZFP SBS#350 (synthetic).
T8 chain: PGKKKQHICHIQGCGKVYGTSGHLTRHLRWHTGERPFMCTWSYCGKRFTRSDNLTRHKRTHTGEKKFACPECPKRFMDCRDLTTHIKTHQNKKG
As for the experimental part:
as §1

For series [20], the target named is ZFP SBS#319 (synthetic, UniProt P08047). Here is the method: as §1
ZFP SBS#319, sequence (P08047 other isoform, or with tags, fused parts or gaps): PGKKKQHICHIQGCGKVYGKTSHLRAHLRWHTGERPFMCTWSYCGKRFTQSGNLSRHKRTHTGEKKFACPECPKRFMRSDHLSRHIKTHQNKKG
The target in series [21] is ZFP SBS#320 (synthetic). As for the experimental part:
as §1

The target in series [22] is T9, ZFP SBS#375 (synthetic).
T9 chain: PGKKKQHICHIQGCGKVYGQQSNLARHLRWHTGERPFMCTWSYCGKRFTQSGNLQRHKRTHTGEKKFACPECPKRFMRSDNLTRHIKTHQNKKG
As for the experimental part:
as §1

Series [23] deals with T10, ZFP SBS#307 (synthetic).
T10 chain: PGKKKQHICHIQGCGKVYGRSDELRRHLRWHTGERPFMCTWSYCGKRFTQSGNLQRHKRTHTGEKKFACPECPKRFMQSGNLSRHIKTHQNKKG
As for the experimental part:
as §1

Series [24] addresses ZFP SBS#251 (synthetic). As for the experimental part: as §1
Series [25] has as its target ZFP SBS#352 (synthetic). Here is the method:
as §1

The target in series [26] is T11, ZFP SBS#297 (synthetic).
T11 chain: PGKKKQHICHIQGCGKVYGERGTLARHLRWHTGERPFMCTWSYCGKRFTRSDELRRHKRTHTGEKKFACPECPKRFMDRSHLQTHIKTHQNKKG
Here is the method: as §1

In series [27] the target is T12, ZFP SBS#318 (synthetic).
T12 chain: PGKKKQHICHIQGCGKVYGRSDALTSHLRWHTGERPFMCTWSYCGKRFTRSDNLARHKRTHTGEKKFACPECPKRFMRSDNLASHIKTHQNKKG
As for the experimental part:
as §1

Series [28] concerns the target T13, ZFP SBS#381 (synthetic).
T13 chain: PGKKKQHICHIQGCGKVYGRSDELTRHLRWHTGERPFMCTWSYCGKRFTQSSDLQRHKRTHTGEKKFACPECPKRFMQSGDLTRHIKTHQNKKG
Here is the method:
as §1

The target in series [29] is ZFP SBS#367 (synthetic). Here is the method: as §1
Series [30] deals with ZFP SBS#314 (synthetic). As for the experimental part:
as §1

The target in series [31] is T14, ZFP SBS#312 (synthetic).
T14 chain: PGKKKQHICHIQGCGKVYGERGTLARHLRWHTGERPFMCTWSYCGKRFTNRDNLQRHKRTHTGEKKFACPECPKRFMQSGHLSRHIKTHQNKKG
As for the experimental part:
as §1

Series [32] has as its target T15, ZFP SBS#311 (synthetic).
T15 chain: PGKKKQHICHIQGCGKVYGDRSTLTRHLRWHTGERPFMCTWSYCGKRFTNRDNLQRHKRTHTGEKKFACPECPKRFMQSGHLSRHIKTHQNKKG
Here is the method:
as §1

Series [33] has as its target ZFP SBS#309 (synthetic). As for the experimental part: as §1
Series [34] addresses ZFP SBS#315 (synthetic). As for the experimental part:
as §1

Series [35] deals with T16, ZFP SBS#316 (synthetic).
T16 chain: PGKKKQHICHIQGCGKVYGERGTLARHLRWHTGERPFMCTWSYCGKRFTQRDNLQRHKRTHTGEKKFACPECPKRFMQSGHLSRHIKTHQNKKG
Here is the method:
as §1

Series [36] deals with T17, ZFP SBS#377 (synthetic).
T17 chain: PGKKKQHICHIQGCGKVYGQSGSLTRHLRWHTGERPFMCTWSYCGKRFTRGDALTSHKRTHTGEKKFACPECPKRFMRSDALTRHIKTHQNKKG
As for the experimental part:
as §1

Series [37] concerns the target ZFP SBS#358 (synthetic). As for the experimental part:
as §1

ZFP SBS#299 (synthetic), sequence (chain, as listed by the source): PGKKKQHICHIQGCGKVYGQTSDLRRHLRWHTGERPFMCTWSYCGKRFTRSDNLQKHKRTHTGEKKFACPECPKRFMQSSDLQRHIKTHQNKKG
ZFP SBS#354 (synthetic), sequence (chain, as listed by the source): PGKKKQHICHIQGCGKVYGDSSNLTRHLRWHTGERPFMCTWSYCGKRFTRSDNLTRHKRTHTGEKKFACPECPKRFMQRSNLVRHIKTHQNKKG
ZFP SBS#303 (synthetic), sequence (chain, as listed by the source): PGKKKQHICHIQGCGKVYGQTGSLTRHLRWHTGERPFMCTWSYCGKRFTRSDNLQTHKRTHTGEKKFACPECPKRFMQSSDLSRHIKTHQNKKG
ZFP SBS#352 (synthetic), sequence (chain, as listed by the source): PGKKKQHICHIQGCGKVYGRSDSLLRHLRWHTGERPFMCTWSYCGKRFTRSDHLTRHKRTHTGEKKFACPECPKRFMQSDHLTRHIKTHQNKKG
ZFP SBS#358 (synthetic), sequence (chain, as listed by the source): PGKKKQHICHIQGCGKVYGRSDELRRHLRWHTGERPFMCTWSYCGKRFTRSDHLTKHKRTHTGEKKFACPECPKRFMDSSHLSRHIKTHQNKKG
ZFP SBS#305 (synthetic), sequence (chain, as listed by the source): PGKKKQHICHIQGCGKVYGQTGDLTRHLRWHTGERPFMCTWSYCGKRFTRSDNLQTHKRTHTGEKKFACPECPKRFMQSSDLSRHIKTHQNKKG
ZFP SBS#365 (synthetic), sequence (chain, as listed by the source): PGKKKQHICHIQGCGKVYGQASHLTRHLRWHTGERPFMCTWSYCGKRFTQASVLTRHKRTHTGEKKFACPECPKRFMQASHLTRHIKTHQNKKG
ZFP SBS#323 (synthetic), sequence (chain, as listed by the source): as the sequence (P08047 other isoform, or with tags, fused parts or gaps) above, with K20T, H23N, A26R, N53H, S55Q, R78D, S79R, S83T counted along it
ZFP SBS#324 (synthetic), sequence (chain, as listed by the source): as the sequence (P08047 other isoform, or with tags, fused parts or gaps) above, with K20T, H23N, A26R, N53H, S55Q, R78D, S79R, S83T counted along it
ZFP SBS#302 (synthetic), sequence (chain, as listed by the source): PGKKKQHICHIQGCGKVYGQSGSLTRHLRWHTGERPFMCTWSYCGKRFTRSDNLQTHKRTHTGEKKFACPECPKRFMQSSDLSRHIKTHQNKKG
ZFP SBS#314 (synthetic), sequence (chain, as listed by the source): as the sequence (P08047 other isoform, or with tags, fused parts or gaps) above, with K20D, T21R, H23S, R25T, A26R, G52S, S55Q, R78Q, D80G counted along it
ZFP SBS#309 (synthetic), sequence (chain, as listed by the source): as the sequence (P08047 other isoform, or with tags, fused parts or gaps) above, with K20E, T21R, H23D, A26R, G52S, S55Q, R78Q, D80G counted along it
ZFP SBS#320 (synthetic), sequence (chain, as listed by the source): as the sequence (P08047 other isoform, or with tags, fused parts or gaps) above, with K20R, T21S, S22D, R25T, A26R counted along it
ZFP SBS#361 (synthetic), sequence (chain, as listed by the source): as the sequence (P08047 other isoform, or with tags, fused parts or gaps) above, with K20R, T21S, S22D, R25T, A26R, G52S, N53A, S55T, S83T counted along it

B1: GGGTTTGGG (dsDNA)
DNA 1: GGGTTTGGG
DNA 2: CCCAAACCC
As for B1, the Kd in [1] was determined as 130 nM; in series [2], 200 nM.

B2: GAAGAGGAC (dsDNA)
DNA 1: GAAGAGGAC
DNA 2: GTCCTCTTC
With B2, the Kd turned out to be 20 nM in [3] and 28 nM in [4].

B3: GGTGCTGGT (dsDNA)
DNA 1: GGTGCTGGT
DNA 2: ACCAGCACC
Regarding B3, the Kd in series [5] turned out to be 600 nM.

B4: GGCGGAGAT (dsDNA)
DNA 1: GGCGGAGAT
DNA 2: ATCTCCGCC
In the case of B4, the dissociation constant Kd in series [6] is 600 nM; in series [7] it was 200 nM; in series [8], 200 nM.

B5: GCTTAGGCA (dsDNA)
DNA 1: GCTTAGGCA
DNA 2: TGCCTAAGC
For the molecule B5, the dissociation constant (Kd) in [9] is 75 nM; in series [10] it was 4000 nM; in series [11], 4000 nM; in series [12], 135 nM; in series [13], 400 nM; in series [14], 230 nM. For the same molecule, the equilibrium dissociation constant (Kd) in [15] is 230 nM; in series [16] it was 280 nM; in series [17], 350 nM.

B6: GTGTGCGGC (dsDNA)
DNA 1: GTGTGCGGC
DNA 2: GCCGCACAC
In series [18], B6 came in with an equilibrium dissociation constant (Kd) of 320 nM. In other words, the sub-micromolar range.

B7: TCCGAGGGT (dsDNA)
DNA 1: TCCGAGGGT
DNA 2: ACCCTCGGA
In the case of B7, the Kd in [19] worked out at 332 nM. This lies in the sub-micromolar range.

B8: GGGGAAGGG (dsDNA)
DNA 1: GGGGAAGGG
DNA 2: CCCTTCCCC
For the molecule B8, the results for the Kd in [20] and in series [21] were 125 nM and 5 nM, respectively.

B9: GAGGAAGAT (dsDNA)
DNA 1: GAGGAAGAT
DNA 2: ATCTTCCTC
B9: the affinity in [22], expressed as Kd, was 85 nM.

B10: GAAGAAGCG (dsDNA)
DNA 1: GAAGAAGCG
DNA 2: CGCTTCTTC
With B10, binding in series [23] was characterised by a dissociation constant (Kd) of 50.5 nM.

B11: GCGGAGGCG (dsDNA)
DNA 1: GCGGAGGCG
DNA 2: CGCCTCCGC
Turning to B11, binding in series [24] was put at a Kd of 27.5 nM.

B12: GGAGGGGTG (dsDNA)
DNA 1: GGAGGGGTG
DNA 2: CACCCCTCC
In series [25], B12 yielded a Kd of 26 nM.

B13: TGCGCGGCC (dsDNA)
DNA 1: TGCGCGGCC
DNA 2: GGCCGCGCA
In series [26], B13 displayed a Kd of 500 nM. In other words, the sub-micromolar range.

B14: TAGGAGATGC (dsDNA)
DNA 1: TAGGAGATGC
DNA 2: GCATCTCCTA
Molecule B14 registered a Kd in series [27] of 100 nM.

B15: GCAGCTGCGC (dsDNA)
DNA 1: GCAGCTGCGC
DNA 2: GCGCAGCTGC
For B15, the Kd in series [28] came to 1.5 nM.

B16: GGGGGCGGG (dsDNA)
DNA 1: GGGGGCGGG
DNA 2: CCCGCCCCC
In series [29], B16 yielded an equilibrium dissociation constant (Kd) of 60 nM.

B17: GGAGATGCC (dsDNA)
DNA 1: GGAGATGCC
DNA 2: GGCATCTCC
With B17, the Kd turned out to be 118 nM in series [30]; 2000 nM in series [31]; 170 nM in [32]; 4000 nM in [33]; 265 nM in series [34]; 3000 nM in series [35].

B18: GTGTTGGCAG (dsDNA)
DNA 1: GTGTTGGCAG
DNA 2: CTGCCAACAC
In turn, B18 yielded a Kd in series [36] of 89 nM.

B19: GGCTGGGCG (dsDNA)
DNA 1: GGCTGGGCG
DNA 2: CGCCCAGCC
On to B19, for which, in series [37], the Kd came out at 225 nM.
